From the nanobody polyreactivity screen of Harvey et al. (2022)

Test: yeast display, Sf9 membrane polyspecificity reagent, FACS + sequencing; frameworks hold sequencing errors
Method in brief: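 Using colony PCR, genes from sorted yeast display clones were amplified, then sequenced on MiSeq at 2 × 250 and filtered by CDR length. The clones had been stained with 10% biotinylated, detergent-solubilized Sf9 membrane reagent for 1 hour at 4 °C and sorted by FACS into low and high (top ~1%) gates on anti-HA and streptavidin fluorescence. Polyreactivity labels come from the gate of origin.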

Sequence | polyreactivity (PSR sort gate)
QVQLVESGGGLVQAGGSLRLSCAASGIILKRNAMGWYRQAPGKERELVAAITSGGTTSYADSVKGRFTISRDNAKNTVYLQLNSLKPEDTAVYYCATRKPVSVYRFAPVYKNSNYWGQGTQVTVSS | high polyreactivity
QVQLVESGGGLVQAGGSLRLSCAASGFTFDENAMGWYRQAPGINYSGASTYYAVSVKGRFTIARDNAKNTVYLQMNSLKPEDTAVYYCAAEVLAQMNYWGQGTQVTVSS | low polyreactivity
QVQLVESGGGLVQAGGSLRLSCAASGSIFYYYAMGWYRQAPGKERELVAAITRSGSSTYYADSVKGRFTISRDNAKNTVYLQMNSLKPEDTAVYYCAAKSKRGSRYDSWGQGTQVTVSS | high polyreactivity
QVQLVESGGGLVQAGGSLRLSCAASGLTFQSYAMGWYRQAPGKERELVAAISRRSGSTYYADSVKGRFTISRDNAKNTVYLQMNSLKPEDTAVYYCTTRRGERGYWGQGTQVTVSS | high polyreactivity
QVQIVESGGGVVQAGGSLRLICAASGSTFLVYAMGWYRQAPGKERELVAAISGRGGRTYYADSVKGRFTISRDIAKNTVYLQMNSLKPEDTAVYYCAKVSKYGAYDYWGQGTQVTVSS | high polyreactivity
QVQLVESGGGLVQAGGSLRLSCAASGSIFTGNAMGWYRPAPGTERELVAAITRSGDSTYYADSVKGRFTISRDNAKNTVYLQMNSLKPEDTAVDYCNARWRYLHSYGYWGQGTQVTVSS | low polyreactivity
QVQLVESGGGLVQAGGSLRLSCAASGSTFIPYAMGWYRQAPGKERELVAGINGGDGSTYYADSVKGRFTISRDNAKNTVYLQMNSLKPEDTAVYYCAKKNPLVFTSGMDYWGQGTQVTVSS | low polyreactivity
QVQLVESGGGLVQAGGSLRLSCAASGGTFYEYVMGWDRQAPGKERELVAAISWGDGSTYYADSVKGRFTISRDNAKNTVYLQMNSLKPEDTAVYYCAADHTVFTYEYWGQGTQVTVSS | high polyreactivity
QVQLVESGGGLVQAGGSLRLSCAASGSIFNRYAMGWYRKAPGKERELVAAMSSTGSTYYADSVKGRFTISRDNAKNTVYLQMNSLKPEDTAVYYCNADATPDWLRVDTYEYWGQGTQVTVSS | low polyreactivity
QVQLVESGGGLVQAGGSLRLSCAASGIIFGNNAMGWYRQAPGKERELVAAIRWSTGTTYYADSVKGRFTISRDNAKNTVYLQMNSLKPEDTAVYYCAARLRREYGYWGQGTQVTVSS | high polyreactivity
QVQLVESGGGLVQAGGSLRLSGAASGTLYINLMGWYRQATGKERDLVAAISSNGARTYYADSVKGRFTISRDNAKNTVYLQMNSLKPDDTAVYYSNRVASVRARDYDYWGQGTQVTVSS | high polyreactivity
QVQLVESGGGLVQAGGSLRLSCAASGSTSYRYAMGWYRQAPGKERELVAAIPWISDSTYYADSVKGRFTISRDNAKNTVVLQMNSLKQEDTAVYYCNTDPLVTTVTFNYWGQGTQVTVSS | low polyreactivity
QVQLVESAGGLVQAGGSLSLSCAASGILVYNAMGWYRQAPGKQRELVAAISARGGRTYYADSVKWRFTISRDNAKNTVYLQMNSLKTEDTAVSYCATLETTGVNYWGQGTQVTVSS | high polyreactivity
QVQLVESGGGLVQAGGSLRLSCAASGSIFYYNTMGWYRQAPGKERELVAAISWSGGSTSYADSVKGRFTISRDNAKNTVYLQMNSLKPEDTAVYYCAAKAVGLGKSWRGDDYWGQGTQVTVSS | low polyreactivity
QVQHVESGGGLVQAGGSLRLSCAASGSTFFRYAKGWYRQAPGTERELVAAISYSGDSTYYADSVKGRFTISRDNAKNTVYLQMNSLKPEDSAVYYCNAVYFRYRYNYWGQGTQVTVSS | high polyreactivity
QVQLVESGGGLVQAGGSLRLSCAASGITFKYYTMGWYRQAPGKERELVAAITSRAGRTYADSVKGRFTISRDNAKNTVYLQMNSLKPEDTAVYYCARRVDYPYAYDYWGQGTQVTVSS | high polyreactivity
QVQLVESGGGLVQAGGSLRLSCAASGRTIYGYAMGWYRQAPGKERELVAAISWTGGRTYYADSVKGRFTISRDNAKNTVYLQMNSLKPEDTAVYYCNARRRGDSGDGYIYGYWGQGTQVNVSS | high polyreactivity
QVQLVESGGGLVQAGGSLRLSCAASGSIFQANAMGWYRQAPGKEWEFVAAINWSTGTTYYADSVKGRFTISRDNAKNTVYLQMNSLKPEDTAVYYCNASDQAKYDYWGQGTQVTVSS | low polyreactivity
QVQLVESGGGLVQAGGSLRLSCAASGLTFNYYAMGWYRQAPGKERELVASISKRGGTYYADSVKGRFTLSRDNAKNTVYLQMNSLKPEDTAVYYCAADYWFRRNEYDYWGQGTQVTVSS | high polyreactivity
QVQLVESGGGLVQAGGSLRLSCAASGSTLASYARGWYRQAPGKERELVAAISSSGGSTYYADSVKGRFTISRDNAKNTVYLQMNSLKPEDSEVYYCAARTRTRYGIDYYWGQGTQVTVSS | high polyreactivity
QVQLVESGGGLVQAGGSLRLSCAASGFTFRRYAMGWYRQAPGKERELVAAISGRGGSTYYADSVKGRFTISRDTAKNTVYLQINSLKPEDTAVYYCNDDRYVRWTPGDYWGQGTQVTVSS | high polyreactivity
QVKLVESAGGLVQAGASLRLSCAPSGITFKRYAMGWSSQQPGKQSELVAAITSGGSTHYADSVKGRFTISRDNAKNTVYLQMNTLKPEDTAVYYCATRRYKWGVRYDYWGQGTQVTVSS | high polyreactivity

Sequence | polyreactivity (PSR sort gate)
QVQLVESGGVLVQAGGSLRLSCAASGSIFWPNSMGWYRQAPGKERELVAGISYSGGRTYYADSVKGRFTISRDNAKNTVYLQMNSLKPEDTAVYYCAALSRRDYNYWGQGTQVTVSS | high polyreactivity
QVQLVESGGGLVQAGGSLRLSCAASGSTFHFYAMGWYRQAPGKERELVASITSRGGNTHYADSVKGRFTISRDNAKNTVYLQMNSLKPEDTAVYYCAARGGWYGTYDYWGQGTQVTVSS | low polyreactivity
QVQLVESGGGLVQAGGSLRLSCAASGIIFYYYGKGWYRQAPGKEREFVAAISTSGGNTYYADSVKGRFTISRDNAKNTVYLQMNSLKPEDTAVYYCAADDWPWGDAGVDYWGQGTQVTVSS | low polyreactivity
QVQHVESGGGLGQAGGSLRLSCAASGSTFRSYAMGWYRQAPGKERELVAVISSGDSTYYADSLKGSFKISRDNAKNTVYLQMNSLKPDDTAVYYCAADSYFLVRWYGYWGQGTQVTVSS | low polyreactivity
QVQLVESGGGLVQAGGSLRLSCAASGNIIAYYAMGWSRQPPGKDRELVAAITDSGGNTFYADSVKGRFTISRDNAKNSVFLQMNSLKPEDTAVYYCAADPDCWGFVYPRYDYWGQGTQVTVSS | low polyreactivity
QVQLVESGGGLVQAGGSLRLICAASGFTFLVYAMAWDRQAPGKERELVAAIRWRGGSTYADSLKGRFTISRDNAKNTVYLQMYSLKPEDTAVYYCAAANRYYVSPRVYYWGQGTQVTVSS | high polyreactivity
QVQLVESGGGLVQAGGSLRLSCAASGSTFWVYDMGWYRQAPGKERELVAAISRRGGRTYYADSVKGRFTISRDNAKNTVYLQMNSLKPEDTAVYYCNRRYTQPDTRQWYDYWGQGTQVTVSS | low polyreactivity
QVQLVESGGGLVQAGGSHRLSCAASGRTFRDNTLGWYRQAPGKERELVAAISRRGGSTYYADSVKGRFTISRDNANNTVYLQMNSLKPVDTADYYCNAVFLTYGSNRGEYWGQGTQVTVSS | high polyreactivity
QVQLVESGGGLVQAGGSLRLSCAASGITFRSNAMGWYRQAPGKERELVATISYRGASTYYADSVKGRFTISRDNAKNTVYLQMNSLKPEYTSVYYCNVRNRYWRSRVDYWGQGTQVTVSS | high polyreactivity
QVQLVESGGGLVQAGGSLRLSCAASGLTFGLYAMGWYRQAPGIERELVAGITAGGRTYYADSVKGRFTISRDNAKNTVYLQMNSLKPEQTAVYYCATVNYRSGRGYRRVYTAYYYWGQGTQVTVSS | low polyreactivity
QVQLGESGGGLVQAGGSLRLSCAPSGSIFGYYSMGWYRQAPGKERELVATITLSDDSTYYAVSVKGRFTISRDNAKITVYLQMNSLKPEDTAVYYCAAVRITRYQWDRSVGSGDYWGQGTQVTVSS | high polyreactivity
QVQLEESGGGLVQAGGSLRVSCSASGSTYLDYHMGWYRQAPGQQRELVAAITDSGGRTYYADSVKARFTISRDNAKNTVYFQMKSLKPEDTAVYYCARDRGKITPYDYWGQGTQVTVSS | low polyreactivity
QVKLVESGGGLVQAGGSLRLSCAAYGSTFAYNAMGWYRQAPGKERELVADISWSGGSTYYADSVKGRFTISRDNAKNTVYLQMNSLNPEDTAVYYCATEYSEGITQFFWATDYDYWGQGSQVTVSS | high polyreactivity
QVQLVESGGGLVQAGGSLLLSCAASGFTFWSYAMAWYRQAPRKERELVADISWSGGSTHYADSVKGRFTISRDNAKNTVYLQMNSLKPEDTAVYYCARRFLYPYDHWGQGTQVTVSS | high polyreactivity
QVHLVESGGGLVQAGGILRLSCAAFGFTFKSYAMVWYIQAPGKERELVAGITSSGGGTYYADSVKGRFTISRDNAKNTVYLQMNSLKPEDTAVYYCNTYSYLFSRYGYWGQGTQVTVSS | high polyreactivity
QVQLVESGGGLVQAGGSHPLSCAASGSIFDLYDMGWYRQAPGKERELVAAISLIGGSTSYADSVKGRFTISRDNAKNSVYLQMNSLKPEDTAVYYCAVDSRPYLRDYWGQGTQVTISS | low polyreactivity
QVQLVESGGGLVQAGGSLRLSCAASGFIFEHYAMGWYRQAPGKERELVARISWRGGSTYYGDSVKGRFTISRDNAKNTVYLQMNSLKPEDTAVYYCAKYAHGHKWYGYWGQGTQVTVSS | low polyreactivity
QVQLVESGGGLVQAGGSLRLSCAASGRTFDLYAMGWYRQAHGKERELVAAIRWSSGNTYYADSVKGRFTISRDNAKNTVYLQMNSLKPEDTAVYYCNDELVPFRFEYWGQGTQVTVSS | low polyreactivity
QVQLVESGGGLVQAGGSLRLSCAASGRIFRYNAMGWYRQAPGKERELVAAISGTGDRTYYADSVKGRFTISRDNAKNTVYLQMNSLKPEDTAVYYCAARGLFFRNRYGYWGQGTQVTVSS | high polyreactivity
QVQLVESGGGLVQAGGILRLSCAASGYTFWDYAMGWYRQAPGKEREFVAGISFSDGGTYYADSVKVRFTISRDNAKNTVYLQMNSLKPEDTAVYYCAVPQDSGYGVSEHYNWGQGTQVTVSS | low polyreactivity
QVQLVESGGGLVQAGGSLRLSCAASGRIFSRNAMGWYRQAPGKDRELVAAISRSGTSTYYADSGKGRFTISRDNAKNTVYLQMNSLKPEDTAVYYCAADSWSRSVNYYYWGQGTQVTVSS | low polyreactivity
